Results as given in US20230406885A1, “CYCLIC PEPTIDES FOR TRAPPING INTERLEUKIN-1 BETA” (MERCK SHARP & DOHME LLC, priority 2022, published 2023).
*1 amine or outer side, *2 acyl side, *3 side chain or, on linkers, in order; H or OH if unused. [ ]: non-standard residue; d: D form. TyrEtNAc = L-tyrosine O-ethyl acetamide, (S)-3-(4-(2-acetamidoethoxy)phenyl)-2-aminopropanoic acid, CC(=O)NCCOc1ccc(C[C@H](N[*:1])C(=O)[*:2])cc1; Trp(4-Cl)(βS-Me) = C[C@@H](c1c[nH]c2cccc(Cl)c12)[C@H](N)C(=O)O; Pro(trans-4-NH2) = O=C([C@@H]1C[C@@H](N[*:3])CN1[*:1])[*:2]; Trp(βS-Me,4-F) = C[C@@H](c1c[nH]c2cccc(F)c12)[C@H](N)C(=O)O; Bip(4'-COOH) = N[C@@H](Cc1ccc(-c2ccc(C(=O)O)cc2)cc1)C(=O)O; SerOMe = O-methyl-L-serine, COC[C@H](N[*:1])C(=O)[*:2]; Phe(4-COOH) = N[C@@H](Cc1ccc(C(=O)O)cc1)C(=O)O; h3Pal(5-CN) = N#Cc1cncc(CC[C@H](N)C(=O)O)c1; 1Nal = N[C@@H](Cc1cccc2ccccc12)C(=O)O; hTyr = N[C@@H](CCc1ccc(O)cc1)C(=O)O; 4Pal = N[C@@H](Cc1ccncc1)C(=O)O; dDab = NCC[C@@H](N)C(=O)O; dNMeA = CN[C@H](C)C(=O)O; Dab = NCC[C@H](N)C(=O)O; Nva = CCC[C@H](N)C(=O)O

B1: SEQ ID NO: 160 (Example No. 160) (peptide)
peptide: cyclo([TyrEtNAc]W[Phe(4-COOH)]G[Pro(trans-4-NH2)][Trp(βS-Me,4-F)]D[dNMeA]G[Bip(4'-COOH)]KL[dDab][hTyr])
SMILES: CC(=O)NCCOc1ccc(C[C@@H]2NC(=O)[C@H](CCc3ccc(O)cc3)NC(=O)[C@@H](CCN)NC(=O)[C@H](CC(C)C)NC(=O)[C@H](CCCCN)NC(=O)[C@H](Cc3ccc(-c4ccc(C(=O)O)cc4)cc3)NC(=O)CNC(=O)[C@@H](C)N(C)C(=O)[C@H](CC(=O)O)NC(=O)[C@H]([C@@H](C)c3c[nH]c4cccc(F)c34)NC(=O)[C@@H]3C[C@@H](N)CN3C(=O)CNC(=O)[C@H](Cc3ccc(C(=O)O)cc3)NC(=O)[C@H](Cc3c[nH]c4ccccc34)NC2=O)cc1
B2: SEQ ID NO: 156 (Example No. 156) (peptide)
peptide: cyclo([TyrEtNAc]W[Phe(4-COOH)]G[Pro(trans-4-NH2)][Trp(βS-Me,4-F)]D[dNMeA]G[Bip(4'-COOH)][4Pal]L[dA][hTyr])
SMILES: CC(=O)NCCOc1ccc(C[C@@H]2NC(=O)[C@H](CCc3ccc(O)cc3)NC(=O)[C@@H](C)NC(=O)[C@H](CC(C)C)NC(=O)[C@H](Cc3ccncc3)NC(=O)[C@H](Cc3ccc(-c4ccc(C(=O)O)cc4)cc3)NC(=O)CNC(=O)[C@@H](C)N(C)C(=O)[C@H](CC(=O)O)NC(=O)[C@H]([C@@H](C)c3c[nH]c4cccc(F)c34)NC(=O)[C@@H]3C[C@@H](N)CN3C(=O)CNC(=O)[C@H](Cc3ccc(C(=O)O)cc3)NC(=O)[C@H](Cc3c[nH]c4ccccc34)NC2=O)cc1
B3: SEQ ID NO: 154 (Example No. 154) (peptide)
peptide: cyclo([TyrEtNAc]W[Phe(4-COOH)]G[Pro(trans-4-NH2)][Trp(βS-Me,4-F)]D[dNMeA]G[Bip(4'-COOH)][1Nal][Dab][dA][hTyr])
SMILES: CC(=O)NCCOc1ccc(C[C@@H]2NC(=O)[C@H](CCc3ccc(O)cc3)NC(=O)[C@@H](C)NC(=O)[C@H](CCN)NC(=O)[C@H](Cc3cccc4ccccc34)NC(=O)[C@H](Cc3ccc(-c4ccc(C(=O)O)cc4)cc3)NC(=O)CNC(=O)[C@@H](C)N(C)C(=O)[C@H](CC(=O)O)NC(=O)[C@H]([C@@H](C)c3c[nH]c4cccc(F)c34)NC(=O)[C@@H]3C[C@@H](N)CN3C(=O)CNC(=O)[C@H](Cc3ccc(C(=O)O)cc3)NC(=O)[C@H](Cc3c[nH]c4ccccc34)NC2=O)cc1
B4: SEQ ID NO: 153 (Example No. 153) (peptide)
peptide: cyclo([TyrEtNAc]W[Phe(4-COOH)]G[Pro(trans-4-NH2)][Trp(4-Cl)(βS-Me)]D[dNMeA]G[Bip(4'-COOH)]W[SerOMe][dA][hTyr])
SMILES: COC[C@@H]1NC(=O)[C@H](Cc2c[nH]c3ccccc23)NC(=O)[C@H](Cc2ccc(-c3ccc(C(=O)O)cc3)cc2)NC(=O)CNC(=O)[C@@H](C)N(C)C(=O)[C@H](CC(=O)O)NC(=O)[C@H]([C@@H](C)c2c[nH]c3cccc(Cl)c23)NC(=O)[C@@H]2C[C@@H](N)CN2C(=O)CNC(=O)[C@H](Cc2ccc(C(=O)O)cc2)NC(=O)[C@H](Cc2c[nH]c3ccccc23)NC(=O)[C@H](Cc2ccc(OCCNC(C)=O)cc2)NC(=O)[C@H](CCc2ccc(O)cc2)NC(=O)[C@@H](C)NC1=O
B5: SEQ ID NO: 161 (Example No. 161) (peptide)
peptide: cyclo([TyrEtNAc]W[Phe(4-COOH)]G[Pro(trans-4-NH2)][Trp(βS-Me,4-F)]D[dNMeA]G[Bip(4'-COOH)]KL[dS][hTyr])
SMILES: CC(=O)NCCOc1ccc(C[C@@H]2NC(=O)[C@H](CCc3ccc(O)cc3)NC(=O)[C@@H](CO)NC(=O)[C@H](CC(C)C)NC(=O)[C@H](CCCCN)NC(=O)[C@H](Cc3ccc(-c4ccc(C(=O)O)cc4)cc3)NC(=O)CNC(=O)[C@@H](C)N(C)C(=O)[C@H](CC(=O)O)NC(=O)[C@H]([C@@H](C)c3c[nH]c4cccc(F)c34)NC(=O)[C@@H]3C[C@@H](N)CN3C(=O)CNC(=O)[C@H](Cc3ccc(C(=O)O)cc3)NC(=O)[C@H](Cc3c[nH]c4ccccc34)NC2=O)cc1
B6: SEQ ID NO: 157 (Example No. 157) (peptide)
peptide: cyclo([TyrEtNAc]W[Phe(4-COOH)]G[Pro(trans-4-NH2)][Trp(βS-Me,4-F)]D[dNMeA]G[Bip(4'-COOH)][4Pal][Nva][dA][hTyr])
SMILES: CCC[C@@H]1NC(=O)[C@H](Cc2ccncc2)NC(=O)[C@H](Cc2ccc(-c3ccc(C(=O)O)cc3)cc2)NC(=O)CNC(=O)[C@@H](C)N(C)C(=O)[C@H](CC(=O)O)NC(=O)[C@H]([C@@H](C)c2c[nH]c3cccc(F)c23)NC(=O)[C@@H]2C[C@@H](N)CN2C(=O)CNC(=O)[C@H](Cc2ccc(C(=O)O)cc2)NC(=O)[C@H](Cc2c[nH]c3ccccc23)NC(=O)[C@H](Cc2ccc(OCCNC(C)=O)cc2)NC(=O)[C@H](CCc2ccc(O)cc2)NC(=O)[C@@H](C)NC1=O
B7: SEQ ID NO: 155 (Example No. 155) (peptide)
peptide: cyclo([TyrEtNAc]W[Phe(4-COOH)]G[Pro(trans-4-NH2)][Trp(βS-Me,4-F)]D[dNMeA]G[Bip(4'-COOH)][1Nal]S[dA][hTyr])
SMILES: CC(=O)NCCOc1ccc(C[C@@H]2NC(=O)[C@H](CCc3ccc(O)cc3)NC(=O)[C@@H](C)NC(=O)[C@H](CO)NC(=O)[C@H](Cc3cccc4ccccc34)NC(=O)[C@H](Cc3ccc(-c4ccc(C(=O)O)cc4)cc3)NC(=O)CNC(=O)[C@@H](C)N(C)C(=O)[C@H](CC(=O)O)NC(=O)[C@H]([C@@H](C)c3c[nH]c4cccc(F)c34)NC(=O)[C@@H]3C[C@@H](N)CN3C(=O)CNC(=O)[C@H](Cc3ccc(C(=O)O)cc3)NC(=O)[C@H](Cc3c[nH]c4ccccc34)NC2=O)cc1
B8: SEQ ID NO: 158 (Example No. 158) (peptide)
peptide: cyclo([TyrEtNAc]W[Phe(4-COOH)]G[Pro(trans-4-NH2)][Trp(βS-Me,4-F)]D[dNMeA]G[Bip(4'-COOH)]KL[dA][h3Pal(5-CN)])
SMILES: CC(=O)NCCOc1ccc(C[C@@H]2NC(=O)[C@H](CCc3cncc(C#N)c3)NC(=O)[C@@H](C)NC(=O)[C@H](CC(C)C)NC(=O)[C@H](CCCCN)NC(=O)[C@H](Cc3ccc(-c4ccc(C(=O)O)cc4)cc3)NC(=O)CNC(=O)[C@@H](C)N(C)C(=O)[C@H](CC(=O)O)NC(=O)[C@H]([C@@H](C)c3c[nH]c4cccc(F)c34)NC(=O)[C@@H]3C[C@@H](N)CN3C(=O)CNC(=O)[C@H](Cc3ccc(C(=O)O)cc3)NC(=O)[C@H](Cc3c[nH]c4ccccc34)NC2=O)cc1
B9: SEQ ID NO: 159 (Example No. 159) (peptide)
peptide: cyclo([TyrEtNAc]W[Phe(4-COOH)]G[Pro(trans-4-NH2)][Trp(βS-Me,4-F)]D[dNMeA]G[Bip(4'-COOH)]KL[dA][hTyr])
SMILES: CC(=O)NCCOc1ccc(C[C@@H]2NC(=O)[C@H](CCc3ccc(O)cc3)NC(=O)[C@@H](C)NC(=O)[C@H](CC(C)C)NC(=O)[C@H](CCCCN)NC(=O)[C@H](Cc3ccc(-c4ccc(C(=O)O)cc4)cc3)NC(=O)CNC(=O)[C@@H](C)N(C)C(=O)[C@H](CC(=O)O)NC(=O)[C@H]([C@@H](C)c3c[nH]c4cccc(F)c34)NC(=O)[C@@H]3C[C@@H](N)CN3C(=O)CNC(=O)[C@H](Cc3ccc(C(=O)O)cc3)NC(=O)[C@H](Cc3c[nH]c4ccccc34)NC2=O)cc1

Biological target: Recombinant human IL-1β (BioLegend 579404) (human, UniProt P01584 117-269)
Assay: cell-based or functional assay

Question: Which “MRC5 IC50” value does the source give for B1 here?
Answer: 0.522 nM

Question: Which “MRC5 IC50” value does the source give for B2 here?
Answer: 0.948 nM

Question: How did the “MRC5 IC50” value turn out when B3 was run?
Answer: 0.196 nM

Question: How did the “MRC5 IC50” value turn out when B4 was run?
Answer: 0.088 nM

Question: B5 was tested. Which “MRC5 IC50” value did it give?
Answer: 0.483 nM

Question: Which “MRC5 IC50” value does the source give for B6 here?
Answer: 0.403 nM

Question: How did the “MRC5 IC50” value turn out when B7 was run?
Answer: 0.22 nM

Question: For B8, which “MRC5 IC50” value is on record?
Answer: 0.0257 nM

Question: How did the “MRC5 IC50” value turn out when B9 was run?
Answer: 0.118 nM
